According to patent US20240182536A1 (MURAL ONCOLOGY, published 2024):

B1: IL-18 variant K53H, S55M, Q56H (ligand)
chain: YFGKLESKLSVIRNLNDQVLFIDQGNRPLFEDMTDSDMRDNAPRTIFIISMYHDMHPRGMAVTISVKSEKISTLSSENKIISFKEMNPPDNIKDTKSDIIFFQRSVPGHDNKMQFESSSYEGYFLASEKERDLFKLILKKEDELGDRSIMFTVQNED
B2: IL-18 variant S36W, D37E, D40F, N41I, K53D, S55N (ligand)
chain: YFGKLESKLSVIRNLNDQVLFIDQGNRPLFEDMTDWEMRFIAPRTIFIISMYDDNQPRGMAVTISVKSEKISTLSSENKIISFKEMNPPDNIKDTKSDIIFFQRSVPGHDNKMQFESSSYEGYFLASEKERDLFKLILKKEDELGDRSIMFTVQNED
B3: IL-18 variant K53D, S55E (ligand)
chain: YFGKLESKLSVIRNLNDQVLFIDQGNRPLFEDMTDSDMRDNAPRTIFIISMYDDEQPRGMAVTISVKSEKISTLSSENKIISFKEMNPPDNIKDTKSDIIFFQRSVPGHDNKMQFESSSYEGYFLASEKERDLFKLILKKEDELGDRSIMFTVQNED
B4: IL-18 variant K53L, S55E (ligand)
chain: YFGKLESKLSVIRNLNDQVLFIDQGNRPLFEDMTDSDMRDNAPRTIFIISMYLDEQPRGMAVTISVKSEKISTLSSENKIISFKEMNPPDNIKDTKSDIIFFQRSVPGHDNKMQFESSSYEGYFLASEKERDLFKLILKKEDELGDRSIMFTVQNED
B5: IL-18 variant K53H, S55Q (ligand)
chain: YFGKLESKLSVIRNLNDQVLFIDQGNRPLFEDMTDSDMRDNAPRTIFIISMYHDQQPRGMAVTISVKSEKISTLSSENKIISFKEMNPPDNIKDTKSDIIFFQRSVPGHDNKMQFESSSYEGYFLASEKERDLFKLILKKEDELGDRSIMFTVQNED
B6: IL-18 variant T34E, N41D, K53N, S55R (ligand)
chain: YFGKLESKLSVIRNLNDQVLFIDQGNRPLFEDMEDSDMRDDAPRTIFIISMYNDRQPRGMAVTISVKSEKISTLSSENKIISFKEMNPPDNIKDTKSDIIFFQRSVPGHDNKMQFESSSYEGYFLASEKERDLFKLILKKEDELGDRSIMFTVQNED
B7: IL-18 variant K53H, S55M (ligand)
chain: YFGKLESKLSVIRNLNDQVLFIDQGNRPLFEDMTDSDMRDNAPRTIFIISMYHDMQPRGMAVTISVKSEKISTLSSENKIISFKEMNPPDNIKDTKSDIIFFQRSVPGHDNKMQFESSSYEGYFLASEKERDLFKLILKKEDELGDRSIMFTVQNED
B8: IL-18 variant K53S, S55F, T63S, R104K, H109Y (ligand)
chain: YFGKLESKLSVIRNLNDQVLFIDQGNRPLFEDMTDSDMRDNAPRTIFIISMYSDFQPRGMAVSISVKSEKISTLSSENKIISFKEMNPPDNIKDTKSDIIFFQKSVPGYDNKMQFESSSYEGYFLASEKERDLFKLILKKEDELGDRSIMFTVQNED
B9: IL-18 variant K53T, S55G, P107A, H109Q (ligand)
chain: YFGKLESKLSVIRNLNDQVLFIDQGNRPLFEDMTDSDMRDNAPRTIFIISMYTDGQPRGMAVTISVKSEKISTLSSENKIISFKEMNPPDNIKDTKSDIIFFQRSVAGQDNKMQFESSSYEGYFLASEKERDLFKLILKKEDELGDRSIMFTVQNED
B10: IL-18 variant K53H, S55G (ligand)
chain: YFGKLESKLSVIRNLNDQVLFIDQGNRPLFEDMTDSDMRDNAPRTIFIISMYHDGQPRGMAVTISVKSEKISTLSSENKIISFKEMNPPDNIKDTKSDIIFFQRSVPGHDNKMQFESSSYEGYFLASEKERDLFKLILKKEDELGDRSIMFTVQNED
B11: IL-18 variant K53D, S55T, H109I (ligand)
chain: YFGKLESKLSVIRNLNDQVLFIDQGNRPLFEDMTDSDMRDNAPRTIFIISMYDDTQPRGMAVTISVKSEKISTLSSENKIISFKEMNPPDNIKDTKSDIIFFQRSVPGIDNKMQFESSSYEGYFLASEKERDLFKLILKKEDELGDRSIMFTVQNED

What was measured:
[1] = molecular target: T1, IL-18 receptors on HEK-Blue IL-18 reporter cells (UniProt Q13478 19-541; O95256 20-599, limits assumed); assay: cell-based or functional assay
T1 sequence (looked up) 1: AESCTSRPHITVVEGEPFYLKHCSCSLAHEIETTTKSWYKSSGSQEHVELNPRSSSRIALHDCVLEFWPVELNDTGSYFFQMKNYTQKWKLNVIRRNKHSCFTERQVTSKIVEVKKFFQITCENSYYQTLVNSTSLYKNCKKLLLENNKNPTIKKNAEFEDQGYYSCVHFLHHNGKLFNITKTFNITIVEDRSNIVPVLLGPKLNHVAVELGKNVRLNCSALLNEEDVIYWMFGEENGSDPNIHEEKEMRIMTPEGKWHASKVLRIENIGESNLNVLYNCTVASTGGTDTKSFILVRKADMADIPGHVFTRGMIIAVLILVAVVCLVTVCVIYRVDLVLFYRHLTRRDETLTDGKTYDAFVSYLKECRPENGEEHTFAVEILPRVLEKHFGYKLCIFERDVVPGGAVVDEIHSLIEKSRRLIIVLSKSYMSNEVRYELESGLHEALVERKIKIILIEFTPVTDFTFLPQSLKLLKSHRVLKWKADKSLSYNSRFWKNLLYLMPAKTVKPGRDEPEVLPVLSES
T1 sequence (looked up) 2: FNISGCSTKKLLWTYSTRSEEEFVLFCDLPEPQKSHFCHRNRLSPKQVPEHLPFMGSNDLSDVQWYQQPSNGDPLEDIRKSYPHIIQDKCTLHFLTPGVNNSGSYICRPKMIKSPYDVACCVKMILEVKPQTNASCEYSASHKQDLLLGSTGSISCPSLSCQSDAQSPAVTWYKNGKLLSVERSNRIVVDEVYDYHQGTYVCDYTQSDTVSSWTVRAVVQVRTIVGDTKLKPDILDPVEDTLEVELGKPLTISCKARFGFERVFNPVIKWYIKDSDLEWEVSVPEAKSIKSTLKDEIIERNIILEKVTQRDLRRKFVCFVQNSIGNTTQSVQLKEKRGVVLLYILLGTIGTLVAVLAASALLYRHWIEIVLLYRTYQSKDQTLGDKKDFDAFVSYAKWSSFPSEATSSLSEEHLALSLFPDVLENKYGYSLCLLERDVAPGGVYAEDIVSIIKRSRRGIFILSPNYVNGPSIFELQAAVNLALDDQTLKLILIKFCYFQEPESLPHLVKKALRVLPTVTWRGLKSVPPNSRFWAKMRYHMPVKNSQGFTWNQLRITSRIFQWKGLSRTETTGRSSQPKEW

[2] = molecular target: T2, interleukin 18 binding protein (IL-18BP) (UniProt O95998 31-194); assay: cell-based or functional assay
T2 sequence (looked up): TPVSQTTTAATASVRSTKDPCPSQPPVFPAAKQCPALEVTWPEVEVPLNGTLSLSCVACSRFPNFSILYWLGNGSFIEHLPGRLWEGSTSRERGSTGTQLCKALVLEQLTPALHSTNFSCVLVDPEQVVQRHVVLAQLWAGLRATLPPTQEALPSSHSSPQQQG

| Binder | HEK-Blue activity, No BP, DF-10000 [1] | HEK-Blue activity, No BP, DF-100,000 [1] | HEK-Blue activity, No BP, DF-1,000,000 [1] | HEK-Blue activity, +100 nM BP, DF-10000 [2] | HEK-Blue activity, +100 nM BP, DF-100,000 [2] | HEK-Blue activity, +100 nM BP, DF-1,000,000 [2] | Ratio (-BP/+BP), DF-10000 [2] | Ratio (-BP/+BP), DF-100,000 [2] | Ratio (-BP/+BP), DF-1,000,000 [2] |
| --- | --- | --- | --- | --- | --- | --- | --- | --- | --- |
| B1 | 0.14 | 0.09 | 0.08 | 0.15 | 0.1 | 0.09 | 0.97 | 0.96 | 0.92 |
| B2 | 0.13 | 0.14 | 0.13 | 0.2 | 0.13 | 0.12 | 0.68 | 1.07 | 1.05 |
| B3 | 0.13 | 0.09 | 0.09 | 0.11 | 0.09 | 0.08 | 1.22 | 1.07 | 1.08 |
| B4 | 0.14 | 0.1 | 0.09 | 0.12 | 0.09 | 0.09 | 1.12 | 1.07 | 1.01 |
| B5 | 0.14 | 0.1 | 0.09 | 0.14 | 0.1 | 0.1 | 1.03 | 1.03 | 0.91 |
| B6 | 0.14 | 0.1 | 0.09 | 0.1 | 0.13 | 0.09 | 1.42 | 0.74 | 1.05 |
| B7 | 0.13 | 0.1 | 0.09 | 0.12 | 0.09 | 0.09 | 1.12 | 1.03 | 1.09 |
| B8 | 0.14 | 0.09 | 0.09 | 0.13 | 0.09 | 0.09 | 1.03 | 1 | 0.99 |
| B9 | 0.13 | 0.1 | 0.11 | 0.12 | 0.16 | 0.12 | 1.1 | 0.63 | 0.87 |
| B10 | 0.13 | 0.1 | 0.08 | 0.12 | 0.09 | 0.08 | 1.08 | 1.04 | 1.02 |
| B11 | 0.13 | 0.09 | 0.08 | 0.12 | 0.09 | 0.09 | 1.1 | 0.97 | 0.98 |
